Data published in patent US10729634B2, “Sex hormone-binding globulin for use as a medicament” (FUNDACIÓ HOSPITAL UNIVERSITARI VALL D'HEBRON—INSTITUT DE …, priority 2013, dated 2020).

Tests used:
[1] = tested on: HepG2 hepatoblastoma cells; assay: Lipolysis assay (glycerol release) in HepG2 cells; assay type: cell-based, human; settings: SHBG 2.5 nM, 10 nM and 50 nM, 16h incubation, vs vehicle control
Method: Cell culture experiments. Cell culture reagents were from Life Technologies Inc (Invitrogen SA). HepG2 hepatoblastoma cells (catalog no. HB-8065; ATCC) were maintained in DMEM supplemented with 10% foetal bovine serum (FBS) and antibiotics. For experiments, HepG2 cells were cultured to 60%-80% confluence, cells were washed and incubated with Lipolysis Assay Buffer containing vehicle (control—C), Isoproterenol (positive control—ISO, 3 μM) or SHBG at different final cell culture concentrations (2.5 nM, 10 nM and 50 nM). SHBG was from native human protein purified from healthy human serums (it included the amino acid sequence SEQ ID NO: 1). After 16h incubation, media was collected and glycerol concentration was assessed using a Glycerol Detection Kit (Zenbio).
The data are depicted in FIG. 1, wherein the bars indicate the levels of glycerol (Gly) for each assayed sample. Glycerol is a direct measure of the lipolysis level, since is the product obtained when triglycerides are decomposed chemically or enzymatically to glycerol and fatty acids.

[2] = tested on: human mature adipocytes from obese subjects; assay: Lipolysis assay (glycerol release) in human mature adipocytes; assay type: cell-based; settings: SHBG 10 nM and 30 nM, 16h incubation, vs control buffer
Method: A similar in vitro experiment as in Example 1 was performed but using human mature adipocytes from obese subjects instead of the HepG2 cells.
The cells were maintained in DMEM supplemented with 10% foetal bovine serum (FBS) and antibiotics, cultured to confluence, washed and incubated with Lipolysis Assay Buffer containing vehicle (control—C), Isoproterenol (positive control—ISO, 3 μM) or SHBG at different final cell culture concentrations (10 nM and 30 nM). SHBG was from native human protein purified from healthy human serums (it included the amino acid sequence SEQ ID NO: 1). After 16h incubation, media was collected and glycerol concentration was assessed using a Glycerol Detection Kit (Zenbio).

[3] = tested on: human SHBG transgenic mice (shbg); assay: High fructose diet in human SHBG transgenic mice vs wild-type; assay type: in vivo; settings: high fructose diet (76% fructose) for 8 weeks, shbg vs WT mice
Description: For this experiment there were used C57BL/6 mice (WT, controls) and human SHBG transgenic mice (shbg) but not obese.
SHBG transgenic mice were obtained as disclosed above and according to Jänne et al, “Human Sex-Hormone-Binding Globulin Gen Expression in Transgenic Mice”, Molecular Endocrinology—1998, Vol. No. 12 (1), pp: 123-136 (supra).
Wild-type (WT) mice and shbg mice were fed with a high fructose diet. (76% fructose) for 8 weeks. Afterwards, they were sacrificed and liver biopsies were analyzed to see total triglyceride (TG) accumulation in both animal types.
Total triglyceride detection was measured using a triglyceride assay kit (Cat. #K622-100 BioVision) following the manufacturer's instructions.
As in Example 3.4 and following the same protocol, lipogenesis was studied by determining the mRNA and protein levels of acetyl-CoA carboxylase (ACC) and fatty acid synthase (FAS). Data from this analysis are illustrated in FIG. 18, panels (C) and (D).

[4] = tested on: human SHBG transgenic mice (shbg); assay: High lipid diet in human SHBG transgenic mice vs wild-type; assay type: in vivo; settings: shbg vs WT mice
Method: Wild-type (WT) mice and shbg-mice as in Example 5 were fed with a high lipid diet (50% lipids, from which 46% pig butter and 4% soybean fat) for 8 weeks.
Weight increase along weeks was followed and plotted in FIG. 19 (A), wherein the weight in grams of mice is plotted per week after consumption of the fat diet.
Once mice were sacrificed, visceral adipose tissue (VAT in grams) was analyzed in both animal types. […] VAT was determined as follows: all visceral fat was removed from the animals and it was weighed in a precision balance.

HepG2 cells = assay: SHBG over-expression (pCMV-SHBG) in stably transfected HepG2 cells; assay type: cell-based, human; settings: SHBG over-expressed (pCMV-SHBG) vs pCMV control
Description: In order to elucidate a possible mechanism of action of the SHBG, HepG2 cells (catalog no. HB-8065; ATCC) maintained in DMEM supplemented with 10% FBS and antibiotics) were stably transfected with a vector expressing SHBG (pCMV-SHBG). The vector pCMV-SHBG and the control (pCMV-empty) were the ones used and mentioned in several publications, being the first in Bocchinfuso W P et al. “Expression and differential glycosylation of human sex hormone-binding globulin by mammalian cell lines”, Mol Endocrinol-1991, Vol. No. 5(11)., pp. 1723-1729.
From all panels in FIG. 20 it can be deduced that SHBG regulates hepatocyte lipid content by modulating ACC levels in HepG2 cells. (a) SHBG mRNA levels were determined in relation to 18S RNA in pCMV and pCMV-SHBG stably transfected HepG2 cells (FIG. 20 a). SHBG protein accumulation in the medium was measured using an ELISA in pCMV and pCMV-SHBG stably transfected HepG2 cells (FIG. 20 b). ACC mRNA levels were determined in relation to 18S mRNA in pCMV and pCMV-SHBG stably transfected HepG2 cells (FIG. 20 c). SHBG mRNA levels were determined in relation to 18S RNA in shControl and shSHBG stably transfected HepG2 cells (FIG. 20 d). SHBG protein accumulation in the medium was measured using an ELISA in shControl and shSHBG stably transfected HepG2 cells (FIG. 20 e). […]

B1: SHBG: native human protein purified from healthy human serums (included SEQ ID NO: 1); in mice and HepG2 expressed from human shbg transgene/vector (protein, listed as Homo sapiens)
chain: MESRGPLATSRLLLLLLLLLLRHTRQGWALRPVLPTQSAHDPPAVHLSNGPGQEPIAVMTFDLTKITKTSSSFEVRTWDPEGVIFYGDTNPKDDWFMLGLRDGRPEIQLHNHWAQLTVGAGPRLDDGRWHQVEVKMEGDSVLLEVDGEEVLRLRQVSGPLTSKRHPIMRIALGGLLFPASNLRLPLVPALDGCLRRDSWLDKQAEISASAPTSLRSCDVESNPGIFLPPGTQAEFNLRDIPQPHAEPWAFSLDLGLKQAAGSGHLLALGTPENPSWLSLHLQDQKVVLSSGSGPGLDLPLVLGLPLQLKLSMSRVVLSQGSKMKALALPPLGLAPLLNLWAKPQGRLFLGALPGEDSSTSFCLNGLWAQGQRLDVDQALNRSHEIWTHSCPQSPGNGTDASH
[1]
  lipolysis (glycerol concentration in medium): increased the lipolysis in HepG2 cells (in a dose-dependent manner)
[2]
  final glycerol concentration (lipolysis): greater than the observed in the non-treated mature adipocytes
[3]
  fatty liver disease: Protects Against Fatty Liver Disease
  triglyceride amount in liver: higher in WT mice than in the transgenic ones (shbg)
[4]; high lipid diet (50% lipids) for 8 weeks
  visceral adipose tissue (VAT): wild-type mice had a greater visceral adipose tissue than transgenic animals
[4]; high lipid diet (50% lipids)
  body weight along weeks: always a lower weight than wild-type mice
  obesity: Protects Against Obesity
HepG2 cells
  ACC expression: the expression of ACC is reduced
  total TG content: the total TG is reduced
